Reference: US20240390531A1 (IMAGINAB, published 2024)
Substitutions are numbered along the chain they refer to. Blank lines part the entries; values can stand above or below the binder they belong to.

Tests used:
[1] = molecular target: T1, purified human FAP antigen (human, UniProt Q12884 26-760, limits assumed); assay: ELISA, plate coated with purified human FAP antigen (FIG. 56F-56G)
Protocol: (§1) Binding kinetics of the novel antigen binding constructs to a purified human FAP antigen was assessed using ELISA. For this assay, a 96 well ELISA plate was coated with the human-FAP antigen diluted to a concentration of 2 mg/mL in coating buffer (0.05M sodium carbonate-bicarbonate buffer, pH 9.6). 100 μl of this coating solution was added to each well in the plate and incubate at 4° C. overnight. The plate was washed 3 times with 300 μl per well of washing buffer (PBS with 0.05% Tween-20). After the last wash, the plate was blocked by adding to each well 200 μl of blocking buffer (PBS with 1% BSA) warmed to room temperature. The plate was then incubated at room temperature for 1 hour under gentle agitation. After blocking, the plate was washed 3 times with 300 μl per well of washing buffer. Dilution samples for each minibody were created by making 2.5× dilutions from a starting sample at 100 ng/mL, or 250 ng/mL, or 1000 ng/mL or 3000 ng/mL in 100 μL sample buffer (PBS with 1% BSA). The dilution samples were transferred to the assay plate and incubated at room temperature for 1 hour under gentle agitation. The plate was then washed 3 times with 300 μl per well of washing buffer.
(§2) Detection was performed by adding 100 μl of HRP labeled detection secondary antibody at an appropriate dilution and incubating the plate at room temperature for 1 hour under gentle agitation. The plate was then washed 3 times with 300 μl per well of washing buffer. For color development, 100 μl of TMB substrate regent, pre-warmed to room temperature, was added to the plate and incubated in the dark at room temperature for 15 min. The reaction was then stopped by adding 100 μl of 650 nm stop solution to the plate and mixed for 1 min at room temperature under gentle agitation. The plate is recorded by reading OD at 650 nm in a plate reader within 20 min after terminating the reaction.

[2] = molecular target: T2, human FAP on cells (human, UniProt Q12884 1-760); assay: flow cytometry on U87-MG glioblastoma cells (FIG. 58B)
T2 construct: whole, on cells; The cell line is named under assay; also called HT1080 human FAP cells; HT1080-hFAP cells
Protocol: As disclosed herein, the binding of constructs to cellular targets was assessed using flow cytometry. Stock of 2.5× serial dilution of minibodies were created starting from a concentration of 100 nM in […] FACS buffer (PBS 2% FBS). Cells were added to a Corning V-bottom polypropylene cell culture plate at 200,000 cells/well. The cells were centrifuged at 100 rpm for 3 minutes and the supernatant discarded. The minibody dilution series were transferred to the plate containing cell pellets and incubated for 1 hr at 4° C. The plate was then washed 3 times with FACS buffer at 200 µl/well, discarding supernatant after each wash by centrifugation at 1000 rpm. 50 µl/well of detection antibody R&D AlexaFluor-647 Goat anti Human (H+L) was added at a 1:100 dilution in FACS buffer and incubated at 4° C. 1 hr. The plate was washed 3 times with FACS buffer at 200 µl/well, discarding supernatant after each wash by centrifuging at 1000 rpm. Cells were then fixed by adding 100 µl of 1% paraformaldehyde in PBS and incubating at room temperature for 15 minutes. 100 µl of PBS were added to each well and the plate was analyzed by flow cytometry using the allophycocyanin fluorescence setting.

[3] = molecular target: T1, purified human FAP antigen; assay: ELISA, plate coated with purified human FAP antigen (FIG. 56A-56C)
Protocol: as §1, §2

B1: IAB16C2-25 (other)
chain: EVQLLESGGGLVQPGGSLRLSCAASGFTFSSHAMSWVRQAPGKGLEWVSAIWASGEQYYADSVKGRFTISRDNSKNTLYLQMNSLRAEDTAVYYCAKGWLGNFDYWGQGTLVTVSSSGGGGEIVLTQSPGTLSLSPGERATLSCRASQSVSRSYLAWYQQKPGQAPRLLIIGASTRATGIPDRFSGSGSGTDFTLTISRLEPEDFAVYYCQQGQVIPPTFGQGTKVEIKGGCPPCPPC
Kd [1]: ~1 nM

B5: IAB16C1-24 (other)
chain: EIVLTQSPGTLSLSPGERATLSCRASQSVSRSYLAWYQQKPGQAPRLLIIGASTRATGIPDRFSGSGSGTDFTLTISRLEPEDFAVYYCQQGQVIPPTFGQGTKVEIKSGGGGEVQLLESGGGLVQPGGSLRLSCAASGFTFSSHAMSWVRQAPGKGLEWVSAIWASGEQYYADSVKGRFTISRDNSKNTLYLQMNSLRAEDTAVYYCAKGWLGNFDYWGQGTLVTVSSGGCPPCPPC
Kd [1]: ~1 nM

B6: IAB16C4-19 (other)
chain: EVQLLESGGGLVQPGGSLRLSCAASGFTFSSYAMSWVRQAPGKGLEWVSAIIGSGASTYYADSVKGRFTISRDNSKNTLYLQMNSLRAEDTAVYYCAKGWFGGFNYWGQGTLVTVSSGGGSGGGGEIVLTQSPGTLSLSPGERATLSCRASQSVTSSYLAWYQQKPGQAPRLLINVGSRRATGIPDRFSGSGSGTDFTLTISRLEPEDFAVYYCQQGIMLPPTFGQGTKVEIKGGCPPCPPC
notes: also called IAB164-19
Kd [1]: ~1 nM

B7: IAB16C4-17 (other)
chain: QVQLVQSGAEVKKPGASVKVSCKTSRYTFTEYTIHWVRQAPGQRLEWIGGINPNNGIPNYNQKFKGRVTITVDTSASTAYMELSSLRSEDTAVYYCARRRIAYGYDEGHAMDYWGQGTLVTVSSGGGSGGGGDIVMTQSPDSLAVSLGERATINCKSSQSLLYSRNQKNYLAWYQQKPGQPPKLLIFWASTRESGVPDRFSGSGFGTDFTLTISSLQAEDVAVYYCQQYFSYPLTFGQGTKVEIKGGCPPCPPC
Kd [1]: ~1 nM

B11: IAB16C2-16 (other)
chain: QVQLVQSGAEVKKPGASVKVSCKTSRYTFTEYTIHWVRQAPGQRLEWIGGINPNNGIPNYNQKFKGRVTITVDTSASTAYMELSSLRSEDTAVYYCARRRIAYGYDEGHAMDYWGQGTLVTVSSSGGGGDIVMTQSPDSLAVSLGERATINCKSSQSLLYSRNQKNYLAWYQQKPGQPPKLLIFWASTRESGVPDRFSGSGFGTDFTLTISSLQAEDVAVYYCQQYFSYPLTFGQGTKVEIKGGCPPCPPC
Kd [1]: ~1 nM

B12: IAB16C2-18 (other)
chain: EVQLLESGGGLVQPGGSLRLSCAASGFTFSSYAMSWVRQAPGKGLEWVSAIIGSGASTYYADSVKGRFTISRDNSKNTLYLQMNSLRAEDTAVYYCAKGWFGGFNYWGQGTLVTVSSSGGGGEIVLTQSPGTLSLSPGERATLSCRASQSVTSSYLAWYQQKPGQAPRLLINVGSRRATGIPDRFSGSGSGTDFTLTISRLEPEDFAVYYCQQGIMLPPTFGQGTKVEIKGGCPPCPPC
Kd [1]: ~1 nM

B13: IAB16M1-30 (other)
chain: DIVMTQSPDSLAVSLGERATINCKSSQSLLYSRNQKNYLAWYQQKPGQPPKLLIFWASTRESGVPDRFSGSGSGTDFTLTISSLQAEDFAVYYCQQYYSYPLTFGQGTKVEIKGSTSGGGSGGGSGGGGSSQVQLVQSGAEVKKPGASVKVSCKASGYTFTEYTIHWVRQAPGQRLEWIGGINPNNGIPNYNQKFKGRVTITVDTSASTAYMELSSLRSEDTAVYYCARRRIAYGYDEGHAMDYWGQGTLVTVSSEPKSSDKTHTCPPCPPCGGGSSGGGSGGQPREPQVYTLPPSREEMTKNQVSLTCLVKGFYPSDIAVEWESNGQPENNYKTTPPVLDSDGSFFLYSKLTVDKSRWQQGNVFSCSVMHEALHNHYTQKSLSLSPG
Kd [3]: ~0.1 nM

Second part, the binder after the results:

Kd [1]: ~1 nM
B2: IAB16C4-27 (other)
chain: EVQLLESGGGLVQPGGSLRLSCAASGFTFSSHAMSWVRQAPGKGLEWVSAIWASGEQYYADSVKGRFTISRDNSKNTLYLQMNSLRAEDTAVYYCAKGWLGNFDYWGQGTLVTVSSGGGSGGGGEIVLTQSPGTLSLSPGERATLSCRASQSVSRSYLAWYQQKPGQAPRLLIIGASTRATGIPDRFSGSGSGTDFTLTISRLEPEDFAVYYCQQGQVIPPTFGQGTKVEIKGGCPPCPPC

Kd [2]: ~0.1 nM | Kd [3]: ~0.1 nM
B3: IAB16M1-10 (other)
chain: EIVLTQSPGTLSLSPGERATLSCRASQSVSRSYLAWYQQKPGQAPRLLIIGASTRATGIPDRFSGSGSGTDFTLTISRLEPEDFAVYYCQQGQVIPPTFGQGTKVEIKGSTSGGGSGGGSGGGGSSEVQLLESGGGLVQPGGSLRLSCAASGFTFSSHAMSWVRQAPGKGLEWVSAIWASGEQYYADSVKGRFTISRDNSKNTLYLQMNSLRAEDTAVYYCAKGWLGNFDYWGQGTLVTVSSEPKSSDKTHTCPPCPPCGGGSSGGGSGGQPREPQVYTLPPSREEMTKNQVSLTCLVKGFYPSDIAVEWESNGQPENNYKTTPPVLDSDGSFFLYSKLTVDKSRWQQGNVFSCSVMHEALHNHYTQKSLSLSPG

Kd [2]: ~0.1 nM | Kd [3]: ~0.1 nM
B4: IAB16M1-8 (other)
chain: EIVLTQSPGTLSLSPGERATLSCRASQSVTSSYLAWYQQKPGQAPRLLINVGSRRATGIPDRFSGSGSGTDFTLTISRLEPEDFAVYYCQQGIMLPPTFGQGTKVEIKGSTSGGGSGGGSGGGGSSEVQLLESGGGLVQPGGSLRLSCAASGFTFSSYAMSWVRQAPGKGLEWVSAIIGSGASTYYADSVKGRFTISRDNSKNTLYLQMNSLRAEDTAVYYCAKGWFGGFNYWGQGTLVTVSSEPKSSDKTHTCPPCPPCGGGSSGGGSGGQPREPQVYTLPPSREEMTKNQVSLTCLVKGFYPSDIAVEWESNGQPENNYKTTPPVLDSDGSFFLYSKLTVDKSRWQQGNVFSCSVMHEALHNHYTQKSLSLSPG

Kd [2]: ~0.1 nM | Kd [3]: ~0.1 nM
B8: IAB16M2-13 (other)
chain: QVQLVQSGAEVKKPGASVKVSCKTSRYTFTEYTIHWVRQAPGQRLEWIGGINPNNGIPNYNQKFKGRVTITVDTSASTAYMELSSLRSEDTAVYYCARRRIAYGYDEGHAMDYWGQGTLVTVSSGSTSGGGSGGGSGGGGSSDIVMTQSPDSLAVSLGERATINCKSSQSLLYSRNQKNYLAWYQQKPGQPPKLLIFWASTRESGVPDRFSGSGFGTDFTLTISSLQAEDVAVYYCQQYFSYPLTFGQGTKVEIKEPKSSDKTHTCPPCPPCGGGSSGGGSGGQPREPQVYTLPPSREEMTKNQVSLTCLVKGFYPSDIAVEWESNGQPENNYKTTPPVLDSDGSFFLYSKLTVDKSRWQQGNVFSCSVMHEALHNHYTQKSLSLSPG
notes: also called Sibrotuzumab minibody

Kd [3]: ~0.1 nM
B9: IAB16M2-31 (other)
chain: B8 chain with T24A, R26G, F215S, V231F, F240Y

Kd [3]: ~0.1 nM
B10: IAB16M2-33 (other)
chain: B8 chain with S225R, Q227E, A228P, V231F

Kd [3]: ~0.1 nM
B14: IAB16M1-36 (other)
chain: B13 chain with S83R, Q85E, A86P

Kd [3]: ~0.1 nM
B15: IAB16M1-32 (other)
chain: B13 chain with S73F, S83R, Q85E, A86P, Y98F, A155T, G157R
